Test results published in US20220010021A1 (Sanofi, published 2022).

T1: human beta-Klotho (KLB) (human, UniProt Q86Z14 53-997)
T1 construct: also called human KLB
T1 sequence (looked up): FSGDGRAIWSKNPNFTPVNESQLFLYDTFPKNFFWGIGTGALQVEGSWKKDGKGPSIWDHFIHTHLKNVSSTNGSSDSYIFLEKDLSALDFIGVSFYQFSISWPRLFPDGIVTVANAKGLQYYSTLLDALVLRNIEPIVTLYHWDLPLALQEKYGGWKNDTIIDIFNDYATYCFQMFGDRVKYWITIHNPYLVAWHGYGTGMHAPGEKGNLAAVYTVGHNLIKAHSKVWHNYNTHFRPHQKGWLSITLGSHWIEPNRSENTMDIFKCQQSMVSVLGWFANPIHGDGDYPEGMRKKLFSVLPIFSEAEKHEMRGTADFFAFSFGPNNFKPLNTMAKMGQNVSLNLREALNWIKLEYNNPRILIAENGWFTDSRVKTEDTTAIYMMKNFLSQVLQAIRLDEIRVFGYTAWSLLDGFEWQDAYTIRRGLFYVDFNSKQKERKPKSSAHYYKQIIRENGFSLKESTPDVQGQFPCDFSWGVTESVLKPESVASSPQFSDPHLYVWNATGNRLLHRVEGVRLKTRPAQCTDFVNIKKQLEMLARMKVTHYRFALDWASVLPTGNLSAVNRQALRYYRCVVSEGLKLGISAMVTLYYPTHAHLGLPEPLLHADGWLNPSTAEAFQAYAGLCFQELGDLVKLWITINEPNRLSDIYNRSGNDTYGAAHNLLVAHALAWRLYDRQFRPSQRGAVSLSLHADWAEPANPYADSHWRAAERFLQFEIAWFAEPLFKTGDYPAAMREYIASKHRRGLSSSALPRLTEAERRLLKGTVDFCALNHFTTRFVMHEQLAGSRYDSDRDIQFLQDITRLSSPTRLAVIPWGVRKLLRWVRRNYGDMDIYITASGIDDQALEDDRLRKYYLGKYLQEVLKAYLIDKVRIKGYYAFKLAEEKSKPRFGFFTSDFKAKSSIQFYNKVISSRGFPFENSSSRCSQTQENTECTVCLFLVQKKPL


What was measured:
[1] = biological target: T1, human beta-Klotho (KLB); assay: BLI off-rate screen (Octet), Ab captured via Fc;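 note: antibody supernatants applied at 25 µg/mL, dissociation monitored over 1800 s in D-PBS with 0.1% BSA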
[2] = biological target: human FGFR1c/KLB cell surface receptor complex on iLite FGF21 reporter cells (human, UniProt P11362 22-822; Q86Z14 1-1044); assay: cell-based or functional assay; for Mean E max (%): reference of the scale not given here
human FGFR1c/KLB cell surface receptor complex on iLite FGF21 reporter cells, sequence (P11362 22-822, chain 1 of 2): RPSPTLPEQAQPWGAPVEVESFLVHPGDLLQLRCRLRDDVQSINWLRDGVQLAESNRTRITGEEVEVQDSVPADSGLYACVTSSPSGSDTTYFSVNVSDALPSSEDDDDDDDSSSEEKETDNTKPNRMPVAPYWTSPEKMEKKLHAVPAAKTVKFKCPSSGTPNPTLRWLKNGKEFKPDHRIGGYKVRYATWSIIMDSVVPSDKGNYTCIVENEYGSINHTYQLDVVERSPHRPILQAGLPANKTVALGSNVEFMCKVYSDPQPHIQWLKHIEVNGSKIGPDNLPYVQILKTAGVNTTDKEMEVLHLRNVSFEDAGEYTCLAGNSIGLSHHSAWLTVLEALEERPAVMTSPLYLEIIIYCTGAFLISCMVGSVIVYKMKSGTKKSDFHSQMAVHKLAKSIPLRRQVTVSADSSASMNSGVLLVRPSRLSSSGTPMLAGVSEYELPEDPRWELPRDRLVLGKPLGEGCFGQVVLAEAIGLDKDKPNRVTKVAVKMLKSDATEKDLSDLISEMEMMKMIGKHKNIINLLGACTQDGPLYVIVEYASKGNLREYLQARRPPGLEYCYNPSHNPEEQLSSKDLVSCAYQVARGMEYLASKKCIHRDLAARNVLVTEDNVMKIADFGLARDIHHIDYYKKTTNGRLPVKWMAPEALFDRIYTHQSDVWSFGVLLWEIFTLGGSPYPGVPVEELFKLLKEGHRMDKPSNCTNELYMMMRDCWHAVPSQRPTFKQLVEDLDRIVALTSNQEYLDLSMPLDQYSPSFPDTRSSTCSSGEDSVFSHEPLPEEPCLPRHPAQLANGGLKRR
human FGFR1c/KLB cell surface receptor complex on iLite FGF21 reporter cells, sequence (Q86Z14 whole entry, chain 2 of 2): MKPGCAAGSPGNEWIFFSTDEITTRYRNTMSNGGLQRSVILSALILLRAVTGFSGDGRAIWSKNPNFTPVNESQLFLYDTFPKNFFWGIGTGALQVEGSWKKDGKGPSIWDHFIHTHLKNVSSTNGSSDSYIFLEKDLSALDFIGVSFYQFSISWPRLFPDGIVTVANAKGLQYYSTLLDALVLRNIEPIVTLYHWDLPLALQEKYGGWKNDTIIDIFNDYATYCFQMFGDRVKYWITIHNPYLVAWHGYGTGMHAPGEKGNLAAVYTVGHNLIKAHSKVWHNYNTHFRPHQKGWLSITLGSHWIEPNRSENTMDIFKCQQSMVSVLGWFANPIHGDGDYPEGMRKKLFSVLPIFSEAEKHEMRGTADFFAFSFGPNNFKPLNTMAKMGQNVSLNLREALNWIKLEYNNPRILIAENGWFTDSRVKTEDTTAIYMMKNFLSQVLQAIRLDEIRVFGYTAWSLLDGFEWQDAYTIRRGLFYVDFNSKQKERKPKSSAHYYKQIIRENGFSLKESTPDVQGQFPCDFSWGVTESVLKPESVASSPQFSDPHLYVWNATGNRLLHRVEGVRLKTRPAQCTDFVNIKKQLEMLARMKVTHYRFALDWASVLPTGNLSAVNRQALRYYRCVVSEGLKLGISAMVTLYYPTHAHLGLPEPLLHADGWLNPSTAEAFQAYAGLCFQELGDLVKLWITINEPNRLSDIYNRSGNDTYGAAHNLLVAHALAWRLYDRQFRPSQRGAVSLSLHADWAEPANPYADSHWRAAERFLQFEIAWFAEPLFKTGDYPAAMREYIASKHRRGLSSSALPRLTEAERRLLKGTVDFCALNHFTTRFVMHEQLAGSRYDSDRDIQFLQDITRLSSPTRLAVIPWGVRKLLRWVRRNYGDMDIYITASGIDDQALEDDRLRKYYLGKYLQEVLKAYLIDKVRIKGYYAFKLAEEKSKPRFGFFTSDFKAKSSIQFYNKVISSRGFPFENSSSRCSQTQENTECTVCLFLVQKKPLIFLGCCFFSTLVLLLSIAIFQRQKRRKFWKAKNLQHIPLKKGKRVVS

Row | Binder | koff [1] [s⁻¹] | Mean E max (%) [2] [%] | Mean EC50 [2] [nM]
1 | 16H7 variant, light chain N26Q (antibody, IgG4, V domains shown, IgG4 backbone; copies: 2 + 2) VH: not shown VL: SYVLTQPPSVSVAPGQTARITCGGNQIGSESVHWYQQKPGQAPVLVVYDDSDRPSGIPERFSGSNSGNTATLTISRVEAGDEADYYCQVWDGNSDHVVFGGGTKLTVLG | 1e-07 | 109 | 0.119
2 | 16H7 variant, light chain N26S (antibody, IgG4, V domains shown, IgG4 backbone; copies: 2 + 2) VH: not shown VL: SYVLTQPPSVSVAPGQTARITCGGNSIGSESVHWYQQKPGQAPVLVVYDDSDRPSGIPERFSGSNSGNTATLTISRVEAGDEADYYCQVWDGNSDHVVFGGGTKLTVLG | 1e-07 | 101 | 0.118
3 | 16H7 variant, light chain P54N (antibody, human IgG4 S228P, lambda, V domains shown, IgG4 backbone) VH: not shown VL: SYVLTQPPSVSVAPGQTARITCGGNNIGSESVHWYQQKPGQAPVLVVYDDSDRNSGIPERFSGSNSGNTATLTISRVEAGDEADYYCQVWDGNSDHVVFGGGTKLTVLG | 0.00014 | 105 | 0.15
4 | 16H7 variant, light chain P54R (antibody, human IgG4 S228P, lambda, V domains shown, IgG4 backbone) VH: not shown VL: SYVLTQPPSVSVAPGQTARITCGGNNIGSESVHWYQQKPGQAPVLVVYDDSDRRSGIPERFSGSNSGNTATLTISRVEAGDEADYYCQVWDGNSDHVVFGGGTKLTVLG | 0.00011 | 104 | 0.111
5 | 16H7 variant, light chain P54D (antibody, human IgG4 S228P, lambda, V domains shown, IgG4 backbone) VH: not shown VL: SYVLTQPPSVSVAPGQTARITCGGNNIGSESVHWYQQKPGQAPVLVVYDDSDRDSGIPERFSGSNSGNTATLTISRVEAGDEADYYCQVWDGNSDHVVFGGGTKLTVLG | 0.00028 | 96 | 0.115
6 | 16H7 variant, light chain P54C (antibody, human IgG4 S228P, lambda, V domains shown, IgG4 backbone) VH: not shown VL: SYVLTQPPSVSVAPGQTARITCGGNNIGSESVHWYQQKPGQAPVLVVYDDSDRCSGIPERFSGSNSGNTATLTISRVEAGDEADYYCQVWDGNSDHVVFGGGTKLTVLG | 0.00012 | 100 | 0.116
7 | 16H7 variant, light chain N26R (antibody, human IgG4 S228P, lambda, V domains shown, IgG4 backbone) VH: not shown VL: SYVLTQPPSVSVAPGQTARITCGGNRIGSESVHWYQQKPGQAPVLVVYDDSDRPSGIPERFSGSNSGNTATLTISRVEAGDEADYYCQVWDGNSDHVVFGGGTKLTVLG | 2.5e-05 | 110 | 0.205
8 | 16H7 variant, light chain N26V (antibody, human IgG4 S228P, lambda, V domains shown, IgG4 backbone) VH: not shown VL: SYVLTQPPSVSVAPGQTARITCGGNVIGSESVHWYQQKPGQAPVLVVYDDSDRPSGIPERFSGSNSGNTATLTISRVEAGDEADYYCQVWDGNSDHVVFGGGTKLTVLG | 3.5e-05 | 106 | 0.118
9 | 16H7 variant, light chain P54S (antibody, human IgG4 S228P, lambda, V domains shown, IgG4 backbone) VH: not shown VL: SYVLTQPPSVSVAPGQTARITCGGNNIGSESVHWYQQKPGQAPVLVVYDDSDRSSGIPERFSGSNSGNTATLTISRVEAGDEADYYCQVWDGNSDHVVFGGGTKLTVLG | 7.9e-05 | 102 | 0.103
10 | 16H7 variant, light chain P54I (antibody, human IgG4 S228P, lambda, V domains shown, IgG4 backbone) VH: not shown VL: SYVLTQPPSVSVAPGQTARITCGGNNIGSESVHWYQQKPGQAPVLVVYDDSDRISGIPERFSGSNSGNTATLTISRVEAGDEADYYCQVWDGNSDHVVFGGGTKLTVLG | 3.5e-05 | 112 | 0.115
11 | 16H7 variant, light chain P54V (antibody, human IgG4 S228P, lambda, V domains shown, IgG4 backbone) VH: not shown VL: SYVLTQPPSVSVAPGQTARITCGGNNIGSESVHWYQQKPGQAPVLVVYDDSDRVSGIPERFSGSNSGNTATLTISRVEAGDEADYYCQVWDGNSDHVVFGGGTKLTVLG | 4.1e-05 | 109 | 0.11
12 | 16H7 variant, light chain P54L (antibody, human IgG4 S228P, lambda, V domains shown, IgG4 backbone) VH: not shown VL: SYVLTQPPSVSVAPGQTARITCGGNNIGSESVHWYQQKPGQAPVLVVYDDSDRLSGIPERFSGSNSGNTATLTISRVEAGDEADYYCQVWDGNSDHVVFGGGTKLTVLG | 9.6e-05 | 108 | 0.133
13 | 16H7 variant, light chain N26W (antibody, IgG4, V domains shown, IgG4 backbone; copies: 2 + 2) VH: not shown VL: SYVLTQPPSVSVAPGQTARITCGGNWIGSESVHWYQQKPGQAPVLVVYDDSDRPSGIPERFSGSNSGNTATLTISRVEAGDEADYYCQVWDGNSDHVVFGGGTKLTVLG | 6.7e-05 | 105 | 0.129
14 | 16H7 variant, light chain P54H (antibody, human IgG4 S228P, lambda, V domains shown, IgG4 backbone) VH: not shown VL: SYVLTQPPSVSVAPGQTARITCGGNNIGSESVHWYQQKPGQAPVLVVYDDSDRHSGIPERFSGSNSGNTATLTISRVEAGDEADYYCQVWDGNSDHVVFGGGTKLTVLG | 0.00014 | 100 | 0.111
15 | 16H7 variant, light chain P54F (antibody, human IgG4 S228P, lambda, V domains shown, IgG4 backbone) VH: not shown VL: SYVLTQPPSVSVAPGQTARITCGGNNIGSESVHWYQQKPGQAPVLVVYDDSDRFSGIPERFSGSNSGNTATLTISRVEAGDEADYYCQVWDGNSDHVVFGGGTKLTVLG | 0.00012 | 105 | 0.143
16 | 16H7 variant, light chain P54M (antibody, human IgG4 S228P, lambda, V domains shown, IgG4 backbone) VH: not shown VL: SYVLTQPPSVSVAPGQTARITCGGNNIGSESVHWYQQKPGQAPVLVVYDDSDRMSGIPERFSGSNSGNTATLTISRVEAGDEADYYCQVWDGNSDHVVFGGGTKLTVLG | 3.2e-05 | 98 | 0.087
17 | 16H7 variant, light chain P54T (antibody, human IgG4 S228P, lambda, V domains shown, IgG4 backbone) VH: not shown VL: SYVLTQPPSVSVAPGQTARITCGGNNIGSESVHWYQQKPGQAPVLVVYDDSDRTSGIPERFSGSNSGNTATLTISRVEAGDEADYYCQVWDGNSDHVVFGGGTKLTVLG | 0.00018 | 108 | 0.113
18 | 16H7 variant, light chain P54Y (antibody, human IgG4 S228P, lambda, V domains shown, IgG4 backbone) VH: not shown VL: SYVLTQPPSVSVAPGQTARITCGGNNIGSESVHWYQQKPGQAPVLVVYDDSDRYSGIPERFSGSNSGNTATLTISRVEAGDEADYYCQVWDGNSDHVVFGGGTKLTVLG | 8.3e-05 | 110 | 0.15
19 | 16H7 variant, light chain P54W (antibody, human IgG4 S228P, lambda, V domains shown, IgG4 backbone) VH: not shown VL: SYVLTQPPSVSVAPGQTARITCGGNNIGSESVHWYQQKPGQAPVLVVYDDSDRWSGIPERFSGSNSGNTATLTISRVEAGDEADYYCQVWDGNSDHVVFGGGTKLTVLG | 0.00017 | 98 | 0.091
20 | 16H7 variant, light chain P54G (antibody, human IgG4 S228P, lambda, V domains shown, IgG4 backbone) VH: not shown VL: SYVLTQPPSVSVAPGQTARITCGGNNIGSESVHWYQQKPGQAPVLVVYDDSDRGSGIPERFSGSNSGNTATLTISRVEAGDEADYYCQVWDGNSDHVVFGGGTKLTVLG | 5.1e-05 | 114 | 0.141
21 | 16H7 variant, light chain P54K (antibody, human IgG4 S228P, lambda, V domains shown, IgG4 backbone) VH: not shown VL: SYVLTQPPSVSVAPGQTARITCGGNNIGSESVHWYQQKPGQAPVLVVYDDSDRKSGIPERFSGSNSGNTATLTISRVEAGDEADYYCQVWDGNSDHVVFGGGTKLTVLG | 0.00016 | 100 | 0.131
22 | 16H7 variant, light chain N26Y (antibody, human IgG4 S228P, lambda, V domains shown, IgG4 backbone) VH: not shown VL: SYVLTQPPSVSVAPGQTARITCGGNYIGSESVHWYQQKPGQAPVLVVYDDSDRPSGIPERFSGSNSGNTATLTISRVEAGDEADYYCQVWDGNSDHVVFGGGTKLTVLG | 3.7e-05 | 110 | 0.124
